{"source": "patent US20060210984A1", "key": {"[1]": {"molecular_target": "IL-1b (human) (UniProt P01584)", "sequence (P01584 117-269 limits assumed)": "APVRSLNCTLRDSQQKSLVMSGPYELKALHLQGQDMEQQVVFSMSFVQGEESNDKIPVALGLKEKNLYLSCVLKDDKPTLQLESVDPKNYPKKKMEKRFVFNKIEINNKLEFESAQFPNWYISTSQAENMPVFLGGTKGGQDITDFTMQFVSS", "assay": "sandwich microarray in flow cell, chemiluminescence, cytokine 1 ng/ml, divided by chip-specific PNA calibration factor; Chip 4"}, "[2]": {"molecular_target": "IL-1b (human) (UniProt P01584)", "assay": "sandwich microarray in flow cell, chemiluminescence, cytokine 1 ng/ml, divided by chip-specific PNA calibration factor; AVG of Chips 1-5"}, "[3]": {"molecular_target": "IL-1b (human) (UniProt P01584)", "assay": "sandwich microarray in flow cell, chemiluminescence, cytokine 1 ng/ml; Chip 3"}, "[4]": {"molecular_target": "IL-1b (human) (UniProt P01584)", "assay": "sandwich microarray in flow cell, chemiluminescence, cytokine 1 ng/ml; Chip 5"}, "[5]": {"molecular_target": "IL-1b (human) (UniProt P01584)", "assay": "sandwich microarray in flow cell, chemiluminescence, cytokine 1 ng/ml; Chip 2"}, "[6]": {"molecular_target": "IL-1b (human) (UniProt P01584)", "assay": "sandwich microarray in flow cell, chemiluminescence, cytokine 1 ng/ml, divided by chip-specific PNA calibration factor; Chip 2"}, "[7]": {"molecular_target": "IL-1b (human) (UniProt P01584)", "assay": "sandwich microarray in flow cell, chemiluminescence, cytokine 1 ng/ml; AVG of Chips 1-5"}, "[8]": {"molecular_target": "IL-1b (human) (UniProt P01584)", "assay": "sandwich microarray in flow cell, chemiluminescence, cytokine 1 ng/ml, divided by chip-specific PNA calibration factor; Chip 1"}, "[9]": {"molecular_target": "IL-1b (human) (UniProt P01584)", "assay": "sandwich microarray in flow cell, chemiluminescence, cytokine 1 ng/ml; Chip 4"}, "[10]": {"molecular_target": "IL-1b (human) (UniProt P01584)", "assay": "sandwich microarray in flow cell, chemiluminescence, cytokine 1 ng/ml, divided by chip-specific PNA calibration factor; Chip 3"}, "[11]": {"molecular_target": "IL-1b (human) (UniProt P01584)", "assay": "sandwich microarray in flow cell, chemiluminescence, cytokine 1 ng/ml, divided by chip-specific PNA calibration factor; Chip 5"}, "[12]": {"molecular_target": "IL-1b (human) (UniProt P01584)", "assay": "sandwich microarray in flow cell, chemiluminescence, cytokine 1 ng/ml; Chip 1"}, "[13]": {"molecular_target": "IL-2 (human) (UniProt P60568)", "sequence (P60568 21-153 limits assumed)": "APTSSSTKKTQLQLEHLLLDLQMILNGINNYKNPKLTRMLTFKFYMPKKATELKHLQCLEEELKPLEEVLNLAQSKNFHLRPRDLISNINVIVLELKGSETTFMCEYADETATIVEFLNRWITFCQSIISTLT", "assay": "sandwich microarray in flow cell, chemiluminescence, cytokine 1 ng/ml, divided by chip-specific PNA calibration factor; Chip 4"}, "[14]": {"molecular_target": "IL-2 (human) (UniProt P60568)", "assay": "sandwich microarray in flow cell, chemiluminescence, cytokine 1 ng/ml, divided by chip-specific PNA calibration factor; AVG of Chips 1-5"}, "[15]": {"molecular_target": "IL-2 (human) (UniProt P60568)", "assay": "sandwich microarray in flow cell, chemiluminescence, cytokine 1 ng/ml; Chip 3"}, "[16]": {"molecular_target": "IL-2 (human) (UniProt P60568)", "assay": "sandwich microarray in flow cell, chemiluminescence, cytokine 1 ng/ml; Chip 5"}, "[17]": {"molecular_target": "IL-2 (human) (UniProt P60568)", "assay": "sandwich microarray in flow cell, chemiluminescence, cytokine 1 ng/ml; Chip 2"}, "[18]": {"molecular_target": "IL-2 (human) (UniProt P60568)", "assay": "sandwich microarray in flow cell, chemiluminescence, cytokine 1 ng/ml, divided by chip-specific PNA calibration factor; Chip 2"}, "[19]": {"molecular_target": "IL-2 (human) (UniProt P60568)", "assay": "sandwich microarray in flow cell, chemiluminescence, cytokine 1 ng/ml; AVG of Chips 1-5"}, "[20]": {"molecular_target": "IL-2 (human) (UniProt P60568)", "assay": "sandwich microarray in flow cell, chemiluminescence, cytokine 1 ng/ml, divided by chip-specific PNA calibration factor; Chip 1"}, "[21]": {"molecular_target": "IL-2 (human) (UniProt P60568)", "assay": "sandwich microarray in flow cell, chemiluminescence, cytokine 1 ng/ml; Chip 4"}, "[22]": {"molecular_target": "IL-2 (human) (UniProt P60568)", "assay": "sandwich microarray in flow cell, chemiluminescence, cytokine 1 ng/ml, divided by chip-specific PNA calibration factor; Chip 3"}, "[23]": {"molecular_target": "IL-2 (human) (UniProt P60568)", "assay": "sandwich microarray in flow cell, chemiluminescence, cytokine 1 ng/ml, divided by chip-specific PNA calibration factor; Chip 5"}, "[24]": {"molecular_target": "IL-2 (human) (UniProt P60568)", "assay": "sandwich microarray in flow cell, chemiluminescence, cytokine 1 ng/ml; Chip 1"}, "[25]": {"molecular_target": "IL-12p70 (human) (UniProt P29459)", "sequence (P29459 23-219 limits assumed, chain 1 of 2)": "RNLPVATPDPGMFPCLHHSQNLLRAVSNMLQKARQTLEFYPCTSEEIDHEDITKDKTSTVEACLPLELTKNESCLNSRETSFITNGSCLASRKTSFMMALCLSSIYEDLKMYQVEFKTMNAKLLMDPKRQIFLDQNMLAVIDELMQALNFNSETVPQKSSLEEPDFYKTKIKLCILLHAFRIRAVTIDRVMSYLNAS", "sequence (P29460 23-328 limits assumed, chain 2 of 2, further chain)": "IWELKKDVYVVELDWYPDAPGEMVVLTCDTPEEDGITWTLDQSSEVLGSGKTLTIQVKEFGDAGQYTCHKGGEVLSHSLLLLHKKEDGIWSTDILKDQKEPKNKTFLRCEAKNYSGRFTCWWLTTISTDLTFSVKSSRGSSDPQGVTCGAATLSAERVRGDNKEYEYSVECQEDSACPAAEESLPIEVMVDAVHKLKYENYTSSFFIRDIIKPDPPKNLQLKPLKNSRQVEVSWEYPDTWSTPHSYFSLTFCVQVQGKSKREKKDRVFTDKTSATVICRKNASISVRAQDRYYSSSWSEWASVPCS", "assay": "sandwich microarray in flow cell, chemiluminescence, cytokine 1 ng/ml, divided by chip-specific PNA calibration factor; Chip 4"}, "[26]": {"molecular_target": "IL-12p70 (human) (UniProt P29459)", "assay": "sandwich microarray in flow cell, chemiluminescence, cytokine 1 ng/ml, divided by chip-specific PNA calibration factor; AVG of Chips 1-5"}, "[27]": {"molecular_target": "IL-12p70 (human) (UniProt P29459)", "assay": "sandwich microarray in flow cell, chemiluminescence, cytokine 1 ng/ml; Chip 3"}, "[28]": {"molecular_target": "IL-12p70 (human) (UniProt P29459)", "assay": "sandwich microarray in flow cell, chemiluminescence, cytokine 1 ng/ml; Chip 5"}, "[29]": {"molecular_target": "IL-12p70 (human) (UniProt P29459)", "assay": "sandwich microarray in flow cell, chemiluminescence, cytokine 1 ng/ml; Chip 2"}, "[30]": {"molecular_target": "IL-12p70 (human) (UniProt P29459)", "assay": "sandwich microarray in flow cell, chemiluminescence, cytokine 1 ng/ml, divided by chip-specific PNA calibration factor; Chip 2"}, "[31]": {"molecular_target": "IL-12p70 (human) (UniProt P29459)", "assay": "sandwich microarray in flow cell, chemiluminescence, cytokine 1 ng/ml; AVG of Chips 1-5"}, "[32]": {"molecular_target": "IL-12p70 (human) (UniProt P29459)", "assay": "sandwich microarray in flow cell, chemiluminescence, cytokine 1 ng/ml, divided by chip-specific PNA calibration factor; Chip 1"}, "[33]": {"molecular_target": "IL-12p70 (human) (UniProt P29459)", "assay": "sandwich microarray in flow cell, chemiluminescence, cytokine 1 ng/ml; Chip 4"}, "[34]": {"molecular_target": "IL-12p70 (human) (UniProt P29459)", "assay": "sandwich microarray in flow cell, chemiluminescence, cytokine 1 ng/ml, divided by chip-specific PNA calibration factor; Chip 3"}, "[35]": {"molecular_target": "IL-12p70 (human) (UniProt P29459)", "assay": "sandwich microarray in flow cell, chemiluminescence, cytokine 1 ng/ml, divided by chip-specific PNA calibration factor; Chip 5"}, "[36]": {"molecular_target": "IL-12p70 (human) (UniProt P29459)", "assay": "sandwich microarray in flow cell, chemiluminescence, cytokine 1 ng/ml; Chip 1"}}}
{"substance": "MAb IL-1b (monoclonal capture antibody of the anti-human IL-1b OptEIA matched pair, BD Biosciences-Pharmingen)", "values": [{"measurement": "chemiluminescent spot intensity (Calibrated Data)", "setting": "[1]", "result": 485}, {"measurement": "chemiluminescent spot intensity (Calibrated Data)", "setting": "[2]", "result": 477}, {"measurement": "chemiluminescent spot intensity (Un-Calibrated Data)", "setting": "[3]", "result": 486}, {"measurement": "chemiluminescent spot intensity (Un-Calibrated Data)", "setting": "[4]", "result": 131}, {"measurement": "chemiluminescent spot intensity (Un-Calibrated Data)", "setting": "[5]", "result": 150}, {"measurement": "chemiluminescent spot intensity (Calibrated Data)", "setting": "[6]", "result": 513}, {"measurement": "chemiluminescent spot intensity (Un-Calibrated Data)", "setting": "[7]", "result": 257}, {"measurement": "chemiluminescent spot intensity (Calibrated Data)", "setting": "[8]", "result": 498}, {"measurement": "chemiluminescent spot intensity (Un-Calibrated Data)", "setting": "[9]", "result": 221}, {"measurement": "chemiluminescent spot intensity (Calibrated Data)", "setting": "[10]", "result": 486}, {"measurement": "chemiluminescent spot intensity (Calibrated Data)", "setting": "[11]", "result": 404}, {"measurement": "chemiluminescent spot intensity (Un-Calibrated Data)", "setting": "[12]", "result": 297}]}
{"substance": "MAb IL-2 (monoclonal capture antibody of the anti-human IL-2 OptEIA matched pair, BD Biosciences-Pharmingen)", "values": [{"measurement": "chemiluminescent spot intensity (Calibrated Data)", "setting": "[13]", "result": 430}, {"measurement": "chemiluminescent spot intensity (Calibrated Data)", "setting": "[14]", "result": 423}, {"measurement": "chemiluminescent spot intensity (Un-Calibrated Data)", "setting": "[15]", "result": 441}, {"measurement": "chemiluminescent spot intensity (Un-Calibrated Data)", "setting": "[16]", "result": 126}, {"measurement": "chemiluminescent spot intensity (Un-Calibrated Data)", "setting": "[17]", "result": 127}, {"measurement": "chemiluminescent spot intensity (Calibrated Data)", "setting": "[18]", "result": 434}, {"measurement": "chemiluminescent spot intensity (Un-Calibrated Data)", "setting": "[19]", "result": 228}, {"measurement": "chemiluminescent spot intensity (Calibrated Data)", "setting": "[20]", "result": 421}, {"measurement": "chemiluminescent spot intensity (Un-Calibrated Data)", "setting": "[21]", "result": 196}, {"measurement": "chemiluminescent spot intensity (Calibrated Data)", "setting": "[22]", "result": 441}, {"measurement": "chemiluminescent spot intensity (Calibrated Data)", "setting": "[23]", "result": 389}, {"measurement": "chemiluminescent spot intensity (Un-Calibrated Data)", "setting": "[24]", "result": 251}]}
{"substance": "MAb IL-12 p70 (monoclonal capture antibody of the anti-human IL-12p70 OptEIA matched pair, BD Biosciences-Pharmingen)", "values": [{"measurement": "chemiluminescent spot intensity (Calibrated Data)", "setting": "[25]", "result": 872}, {"measurement": "chemiluminescent spot intensity (Calibrated Data)", "setting": "[26]", "result": 903}, {"measurement": "chemiluminescent spot intensity (Un-Calibrated Data)", "setting": "[27]", "result": 956}, {"measurement": "chemiluminescent spot intensity (Un-Calibrated Data)", "setting": "[28]", "result": 288}, {"measurement": "chemiluminescent spot intensity (Un-Calibrated Data)", "setting": "[29]", "result": 255}, {"measurement": "chemiluminescent spot intensity (Calibrated Data)", "setting": "[30]", "result": 872}, {"measurement": "chemiluminescent spot intensity (Un-Calibrated Data)", "setting": "[31]", "result": 490}, {"measurement": "chemiluminescent spot intensity (Calibrated Data)", "setting": "[32]", "result": 929}, {"measurement": "chemiluminescent spot intensity (Un-Calibrated Data)", "setting": "[33]", "result": 397}, {"measurement": "chemiluminescent spot intensity (Calibrated Data)", "setting": "[34]", "result": 956}, {"measurement": "chemiluminescent spot intensity (Calibrated Data)", "setting": "[35]", "result": 888}, {"measurement": "chemiluminescent spot intensity (Un-Calibrated Data)", "setting": "[36]", "result": 554}]}
